This series deals with the molecule itself. Put plainly: native gel or EMSA. (A gel shift assay detects complexes by their altered migration in electrophoresis.)

B1: myc-laforin wild type (pCMVmyc-laforin WT) (natural protein, human, UniProt O95278 1-331, looked up)
chain: MRFRFGVVVPPAVAGARPELLVVGSRPELGRWEPRGAVRLRPAGTAAGDGALALQEPGLWLGEVELAAEEAAQDGAEPGRVDTFWYKFLKREPGGELSWEGNGPHHDRCCTYNENNLVDGVYCLPIGHWIEATGHTNEMKHTTDFYFNIAGHQAMHYSRILPNIWLGSCPRQVEHVTIKLKHELGITAVMNFQTEWDIVQNSSGCNRYPEPMTPDTMIKLYREEGLAYIWMPTPDMSTEGRVQMLPQAVCLLHALLEKGHIVYVHCNAGVGRSTAAVCGWLQYVMGWNLRKVQYFLMAKRPAVYIDEEALARAQEDFFQKFGKVRSSVCSL
Turning to B1, the stoichiometry N (commonly a count of units in the complex or per binding partner) was found to be 2.

B2: myc-laforin S25D (pCMVmyc-laforin S25D) (natural protein, human, UniProt O95278 1-331, looked up)
chain: MRFRFGVVVPPAVAGARPELLVVGDRPELGRWEPRGAVRLRPAGTAAGDGALALQEPGLWLGEVELAAEEAAQDGAEPGRVDTFWYKFLKREPGGELSWEGNGPHHDRCCTYNENNLVDGVYCLPIGHWIEATGHTNEMKHTTDFYFNIAGHQAMHYSRILPNIWLGSCPRQVEHVTIKLKHELGITAVMNFQTEWDIVQNSSGCNRYPEPMTPDTMIKLYREEGLAYIWMPTPDMSTEGRVQMLPQAVCLLHALLEKGHIVYVHCNAGVGRSTAAVCGWLQYVMGWNLRKVQYFLMAKRPAVYIDEEALARAQEDFFQKFGKVRSSVCSL
Take B2: the “stoichiometry N” value is 2.

For the origin of these results see publication PMC3299407 (Biochemical Journal, 2011).
